This is an account of results in US20220332804A1 (CSL INNOVATION, published 2022).

Where a chain is given by its changes, count along the chain named.

Common to all, as to test: SPR, antibody captured, C2 as analyte;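 note: biacore SPR at 37 °C, anti-C2 mAbs captured via goat anti-human IgG on CM5 chips, double-referenced sensorgrams fit to a 1:1 kinetic or steady-state model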
(In SPR one partner is held on a chip, and binding of the other changes the refractive index at the surface.)

One assay concerns the target T1, human C2 F689A (human, UniProt P06681 21-752).
T1 sequence: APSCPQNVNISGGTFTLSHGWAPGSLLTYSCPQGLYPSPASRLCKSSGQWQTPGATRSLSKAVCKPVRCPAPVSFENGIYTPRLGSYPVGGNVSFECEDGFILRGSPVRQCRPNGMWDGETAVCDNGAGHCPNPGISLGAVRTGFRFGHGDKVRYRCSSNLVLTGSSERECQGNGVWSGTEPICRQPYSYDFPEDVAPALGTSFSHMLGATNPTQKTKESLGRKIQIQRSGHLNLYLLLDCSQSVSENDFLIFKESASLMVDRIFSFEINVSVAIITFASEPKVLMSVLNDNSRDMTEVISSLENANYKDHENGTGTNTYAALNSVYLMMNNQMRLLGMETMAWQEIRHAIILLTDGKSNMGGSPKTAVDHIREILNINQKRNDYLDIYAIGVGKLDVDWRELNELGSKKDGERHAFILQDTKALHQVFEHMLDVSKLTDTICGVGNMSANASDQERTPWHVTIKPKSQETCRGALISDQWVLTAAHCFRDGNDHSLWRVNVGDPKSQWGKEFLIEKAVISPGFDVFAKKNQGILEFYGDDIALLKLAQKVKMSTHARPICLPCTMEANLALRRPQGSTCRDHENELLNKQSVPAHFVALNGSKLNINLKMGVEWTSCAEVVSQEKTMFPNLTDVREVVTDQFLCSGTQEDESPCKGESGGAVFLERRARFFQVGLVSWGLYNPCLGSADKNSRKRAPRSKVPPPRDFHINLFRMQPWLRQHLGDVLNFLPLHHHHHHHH

For a further assay, the target named is T2, human C2 K274A (human, UniProt P06681 21-752).
T2 sequence: T1 sequence with K254A, A669F

For another assay, the target named is T3, human C2 E275A (human, UniProt P06681 21-752).
T3 sequence: T1 sequence with E255A, A669F

In another assay the target is T4, human C2 A472S (human, UniProt P06681 21-752).
T4 sequence: T1 sequence with A452S, A669F

B1: RF16-226 (antibody, human IgG4 S228P, lambda)
heavy: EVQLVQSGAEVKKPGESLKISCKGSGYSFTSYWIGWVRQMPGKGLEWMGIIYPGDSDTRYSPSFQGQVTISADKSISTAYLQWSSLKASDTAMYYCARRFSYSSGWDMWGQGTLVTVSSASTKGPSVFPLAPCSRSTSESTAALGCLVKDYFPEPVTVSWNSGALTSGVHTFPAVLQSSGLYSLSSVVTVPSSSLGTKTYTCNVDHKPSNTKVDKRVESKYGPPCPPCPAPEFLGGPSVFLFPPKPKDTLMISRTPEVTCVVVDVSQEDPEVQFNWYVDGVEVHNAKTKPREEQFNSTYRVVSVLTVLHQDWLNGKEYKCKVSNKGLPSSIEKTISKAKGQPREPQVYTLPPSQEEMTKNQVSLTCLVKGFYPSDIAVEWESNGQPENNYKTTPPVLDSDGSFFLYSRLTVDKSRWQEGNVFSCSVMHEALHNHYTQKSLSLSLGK
light: SYELTQPPSVSVSPGQTARITCSGDALTSKYVAWYQQKSGLAPLLVIYEDTRRPSGIPAKFSGSSSGSVATLTISGAHGDDEADYYCYSTDASGHQRVFGGGTKLTVLSQPKAAPSVTLFPPSSEELQANKATLVCLISDFYPGAVTVAWKADGSPVKAGVETTKPSKQSNNKYAASSYLSLTPEQWKSHRSYSCQVTHEGSTVEKTVAPTECS
notes: pH-dependent anti-C2 antibody from a phage display library; also called WT
For the molecule B1, the Kd was 9.3 nM with human C2 F689A, 291 nM in the assay with human C2 K274A, 9.4 nM in the assay with human C2 E275A and 53 nM with human C2 A472S.

One may read the Kd as the constant that tells how readily two partners part at equilibrium. Lower therefore signals a tighter complex.
